The target of experiment [1] is T1, GST^4CS-RGA^C374S recombinant protein (Arabidopsis, UniProt Q9SLH3 1-587, C374S).
T1 sequence (looked up): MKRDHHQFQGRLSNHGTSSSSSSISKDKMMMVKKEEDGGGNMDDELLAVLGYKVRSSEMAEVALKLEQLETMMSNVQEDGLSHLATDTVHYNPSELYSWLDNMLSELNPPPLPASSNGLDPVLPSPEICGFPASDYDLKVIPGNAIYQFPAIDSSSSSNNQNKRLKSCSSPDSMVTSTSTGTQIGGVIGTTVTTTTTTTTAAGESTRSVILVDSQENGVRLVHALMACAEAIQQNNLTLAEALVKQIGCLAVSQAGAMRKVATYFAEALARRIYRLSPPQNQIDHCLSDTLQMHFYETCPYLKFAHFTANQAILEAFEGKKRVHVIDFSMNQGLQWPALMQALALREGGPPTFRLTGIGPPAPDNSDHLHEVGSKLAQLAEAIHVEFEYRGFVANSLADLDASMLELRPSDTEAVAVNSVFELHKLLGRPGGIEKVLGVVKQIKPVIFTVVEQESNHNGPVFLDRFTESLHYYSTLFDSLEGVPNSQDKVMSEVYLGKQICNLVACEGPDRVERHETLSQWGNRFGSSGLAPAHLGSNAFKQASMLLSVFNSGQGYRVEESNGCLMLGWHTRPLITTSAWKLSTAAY
The experiment in a line: pull-down.

Experiment [2] deals with T2, GST^4CS-RGA recombinant protein (REPRESSOR-OF-ga1-3) (Arabidopsis, UniProt Q9SLH3 1-587).
T2 sequence (looked up): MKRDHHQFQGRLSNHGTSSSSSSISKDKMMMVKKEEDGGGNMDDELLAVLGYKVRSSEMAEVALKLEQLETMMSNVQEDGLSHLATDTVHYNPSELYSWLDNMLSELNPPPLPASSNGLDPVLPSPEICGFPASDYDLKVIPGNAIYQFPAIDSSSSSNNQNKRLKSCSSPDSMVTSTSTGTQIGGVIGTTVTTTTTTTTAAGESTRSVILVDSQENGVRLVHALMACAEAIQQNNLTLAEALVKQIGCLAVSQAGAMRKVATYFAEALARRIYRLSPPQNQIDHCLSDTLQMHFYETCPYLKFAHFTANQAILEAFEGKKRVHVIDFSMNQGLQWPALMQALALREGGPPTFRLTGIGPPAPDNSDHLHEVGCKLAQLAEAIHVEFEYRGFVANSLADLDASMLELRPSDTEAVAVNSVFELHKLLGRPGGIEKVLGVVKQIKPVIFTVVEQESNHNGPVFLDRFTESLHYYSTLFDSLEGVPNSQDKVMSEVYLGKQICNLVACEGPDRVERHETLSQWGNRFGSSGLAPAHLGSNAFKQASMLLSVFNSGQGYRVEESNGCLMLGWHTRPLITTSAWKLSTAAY
The experiment in a line: pull-down.

B1: His-SLY1 recombinant protein (F-box protein SLEEPY1) (natural protein, Arabidopsis, UniProt Q9STX3 1-151, looked up)
chain: MKRSTTDSDLAGDAHNETNKKMKSTEEEEIGFSNLDENLVYEVLKHVDAKTLAMSSCVSKIWHKTAQDERLWELICTRHWTNIGCGQNQLRSVVLALGGFRRLHSLYLWPLSKPNPRARFGKDELKLTLSLLSIRYYEKMSFTKRPLPESK
For the molecule B1, the binding result in experiment [1] is “binds”.

B2: His-GID1c recombinant protein (GA-… DWARF1c) (receptor, Arabidopsis, UniProt Q940G6 1-344, looked up)
chain: MAGSEEVNLIESKTVVPLNTWVLISNFKLAYNLLRRPDGTFNRHLAEFLDRKVPANANPVNGVFSFDVIIDRQTNLLSRVYRPADAGTSPSITDLQNPVDGEIVPVIVFFHGGSFAHSSANSAIYDTLCRRLVGLCGAVVVSVNYRRAPENRYPCAYDDGWAVLKWVNSSSWLRSKKDSKVRIFLAGDSSGGNIVHNVAVRAVESRIDVLGNILLNPMFGGTERTESEKRLDGKYFVTVRDRDWYWRAFLPEGEDREHPACSPFGPRSKSLEGLSFPKSLVVVAGLDLIQDWQLKYAEGLKKAGQEVKLLYLEQATIGFYLLPNNNHFHTVMDEIAAFVNAECQ
As to B2, the binding result in experiment [2] was “binds”.

B3: His-GID1a recombinant protein (GA-… DWARF1a) (receptor, Arabidopsis, UniProt Q9MAA7 1-345, looked up)
chain: MAASDEVNLIESRTVVPLNTWVLISNFKVAYNILRRPDGTFNRHLAEYLDRKVTANANPVDGVFSFDVLIDRRINLLSRVYRPAYADQEQPPSILDLEKPVDGDIVPVILFFHGGSFAHSSANSAIYDTLCRRLVGLCKCVVVSVNYRRAPENPYPCAYDDGWIALNWVNSRSWLKSKKDSKVHIFLAGDSSGGNIAHNVALRAGESGIDVLGNILLNPMFGGNERTESEKSLDGKYFVTVRDRDWYWKAFLPEGEDREHPACNPFSPRGKSLEGVSFPKSLVVVAGLDLIRDWQLAYAEGLKKAGQEVKLMHLEKATVGFYLLPNNNHFHNVMDEISAFVNAEC
B3: the binding result in experiment [2] is given as “binds”.
